Data published in US20130078216A1 (published 2013).
Each block holds one binder with its values, some of them ahead of it.

Experiments:
(His)6-Human ASGPR H1 [1] = target: T1, (His)6-Human ASGPR H1 (human, UniProt P07306 62-291); test: BIAcore, antigen coated on a CM5 chip, dAb at 2.5 µM
T1 construct: Expressed in HEK293E, Ni-NTA purified; coated on a CM5 chip or biotinylated and captured on a streptavidin chip; The entry includes the His tag; also called human (His)6-ASGPR H1; Human (His)6 ASGPR H1 Q62-L291
T1 sequence: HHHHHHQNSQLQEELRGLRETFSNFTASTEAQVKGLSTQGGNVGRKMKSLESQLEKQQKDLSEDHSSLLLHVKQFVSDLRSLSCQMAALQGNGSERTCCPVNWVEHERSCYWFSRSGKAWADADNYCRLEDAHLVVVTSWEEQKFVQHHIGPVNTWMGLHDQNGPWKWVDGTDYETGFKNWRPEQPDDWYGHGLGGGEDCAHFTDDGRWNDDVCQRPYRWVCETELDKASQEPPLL
Description: (§1) FIG. 3: Vκ and VH dAbs selected against recombinant human and mouse ASGPR proteins binding specifically to the target antigen. Antigens were coated on the surface of a CM5 BlAcore chip and protein L purified Vκ dAb DOM26m-20 (top panel) or protein A purified VH dAb DOM26h-61 (bottom panel) was passed over the chip surface at a concentration of 2.5 μM using a flow-rate of […]. In the top panel binding of dAb to (His)₆-mouse ASGPR H1 ( )or human c-kit (His)₆ negative control antigen ( ) is shown. In the bottom panel dAb binding to (His)₆-human ASGPR H1 ( )or human c-kit (His)₆ negative control antigen ( ) is shown.
(§2) Screening by BlAcore took place using dAb supernatant expressed as above diluted 1:2 with HBS-P BlAcore running buffer. Each dAb was then injected over a blank flow cell and a flow cell coated with human or mouse (His)₆-ASGPR H1 on a CM5 chip. […] All unique dAb clones were expressed in 50 ml cultures (OnEX plus carbenicillin) overnight at 37° C. and purified on protein A (VH dAbs) or protein L (Vκ dAbs). Purified dAbs were passed over a CM5 BIAcore chip coated with either human or mouse (His)₆-ASGPR H1 at 20μg/ml (FIG. 3). Those dAbs that bound specifically to (His)₆-ASGPR H1 were then analysed in the flow cytometry cell binding assay (FIG. 4).

[2] = target: T2, human c-kit (His)6 negative control antigen (human, UniProt P10721 26-524, limits assumed); test: BIAcore, antigens coated on a CM5 chip, human c-kit (His)6 as negative control antigen
T2 construct: Control antigen
T2 sequence (P10721 26-524 limits assumed): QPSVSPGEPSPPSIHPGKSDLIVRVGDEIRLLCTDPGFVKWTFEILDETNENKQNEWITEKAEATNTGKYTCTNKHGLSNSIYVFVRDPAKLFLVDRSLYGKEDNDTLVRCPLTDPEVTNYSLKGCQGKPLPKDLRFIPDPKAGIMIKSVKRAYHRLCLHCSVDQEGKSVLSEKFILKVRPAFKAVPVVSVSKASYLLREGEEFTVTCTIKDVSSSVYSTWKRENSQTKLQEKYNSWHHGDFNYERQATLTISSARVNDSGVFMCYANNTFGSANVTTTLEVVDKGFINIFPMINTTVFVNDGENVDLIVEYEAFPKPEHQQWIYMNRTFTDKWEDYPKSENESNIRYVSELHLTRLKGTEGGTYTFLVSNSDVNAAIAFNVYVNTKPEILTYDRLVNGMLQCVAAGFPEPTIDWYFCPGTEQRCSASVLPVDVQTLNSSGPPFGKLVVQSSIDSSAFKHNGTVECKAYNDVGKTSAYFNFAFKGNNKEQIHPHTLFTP
Description: as §1, §2

[3] = target: T3, (His)6-Human ASGPR H1 Stalk Domain (human, UniProt P07306 62-153); test: BIAcore, biotinylated stalk domain on a streptavidin chip, flow 40 µl/min
T3 construct: Biotinylated and immobilised on a streptavidin chip; also called human (His)6-ASGPR H1 stalk domain; (His)6-human ASGPR H1 stalk domain residues glutamine 62-cysteine 153
T3 sequence: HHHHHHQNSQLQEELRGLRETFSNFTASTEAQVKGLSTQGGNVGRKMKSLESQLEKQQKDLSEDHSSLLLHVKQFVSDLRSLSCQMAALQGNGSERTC
Description: (§3) To assay for potential dAb binding activity human (His)₆-ASGPR H1 stalk domain, human (His)₆-ASGPR H1 lectin domain and mouse (His)₆-ASGPR H1 extracellular domain were biotinylated and immobilised on a biacore Streptavidin chip surface.

(His)6-Mouse ASGPR H1 [4] = target: T4, (His)6-Mouse ASGPR H1 (mouse, UniProt P34927 61-284); test: BIAcore, biotinylated antigen on a streptavidin chip, FLAG-tagged dAb, 40 µl/min
T4 construct: Expressed in HEK293E, Ni-NTA purified; coated on a CM5 chip or biotinylated and captured on a streptavidin chip; The entry includes the His tag; also called mouse (His)6-ASGPR H1; mouse (His)6-ASGPR H1 extracellular domain
T4 sequence: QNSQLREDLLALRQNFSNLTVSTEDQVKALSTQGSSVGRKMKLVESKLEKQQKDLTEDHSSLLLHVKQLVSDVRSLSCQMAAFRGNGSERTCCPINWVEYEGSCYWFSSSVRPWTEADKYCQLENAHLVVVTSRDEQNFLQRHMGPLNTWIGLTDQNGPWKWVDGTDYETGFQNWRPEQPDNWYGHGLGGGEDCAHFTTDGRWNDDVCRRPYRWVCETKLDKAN
Description: as §3

[5] = target: T5, (His)6-Human ASGPR H1 Lectin Domain (human, UniProt P07306 154-291); test: as above
T5 construct: Biotinylated and immobilised on a streptavidin chip; also called human (His)6-ASGPR H1 lectin domain; human (His)6 lectin domain
T5 sequence: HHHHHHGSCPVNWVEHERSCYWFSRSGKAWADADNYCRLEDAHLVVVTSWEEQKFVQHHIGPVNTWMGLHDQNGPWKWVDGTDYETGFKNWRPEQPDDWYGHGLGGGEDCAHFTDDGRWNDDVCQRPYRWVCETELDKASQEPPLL
Description: as §3

[6] = target: T6, mouse ASGPR on the murine liver cell line Hepa1c1c7 (and on mouse liver in vivo) (mouse, UniProt P34927 1-284); test: cell-based or functional assay
T6 sequence (looked up): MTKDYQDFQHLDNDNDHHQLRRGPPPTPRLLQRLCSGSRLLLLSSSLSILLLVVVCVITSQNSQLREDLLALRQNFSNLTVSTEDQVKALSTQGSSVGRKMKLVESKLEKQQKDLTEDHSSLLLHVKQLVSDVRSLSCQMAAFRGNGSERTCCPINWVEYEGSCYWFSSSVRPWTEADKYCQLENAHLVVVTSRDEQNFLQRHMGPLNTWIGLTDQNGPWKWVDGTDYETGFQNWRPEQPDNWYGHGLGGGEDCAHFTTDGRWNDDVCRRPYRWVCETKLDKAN

(His)6-Mouse ASGPR H1 [7] = target: T4, (His)6-Mouse ASGPR H1; test: BIAcore epitope mapping, 1 µM dAb over (His)6 mouse ASGPR H1 on a CM5 chip
Description: After coating a BlAcore CM5 chip with (His)₆ mouse ASGPR H1, protein A or protein L purified dAb proteins were injected one after the other and in combination over the same antigen surface. The resulting binding RUs were determined in order to see whether the maximal binding capacity of the chip by one dAb molecule can be exceeded by simultaneously injecting a second dAb onto the same antigen surface. If so, the second dAb clearly binds a different epitope compared to the first one. 1 μM concentrations of each dAb were injected at a flow rate of […], both in single injection and co-injection experiments. If injection of the second dAb in the presence of the first dAb reduced the observed binding to the chip surface by greater than 20% (in comparison to observed binding of the second dAb to the chip surface in the absence of the first dAb) both dAbs were assumed to bind overlapping epitopes within the antigen (FIG. 6). Based on results obtained in these experiments murine ASGPR specific dAb clones could be grouped according to epitopes bound within the antigen as shown in FIG. 12.

[8] = target: T5, (His)6-Human ASGPR H1 Lectin Domain; test: BIAcore, biotinylated antigen on a streptavidin chip, 60 nM dAb, 40 µl/min
(His)6-Human ASGPR H1 [9] = target: T1, (His)6-Human ASGPR H1; test: BIAcore, biotinylated (His)6-ASGPR H1 on a streptavidin chip, 62 nM dAb, 40 µl/min
Description: ( )to human (His)₆-ASGPR H1. Biotinylated (His)₆-ASGPR H1 was immobilised on a Biacore streptavidin chip surface and 62 nM dAb passed over at a flow rate of 40 μl.min⁻¹.

(His)6-Mouse ASGPR H1 [10] = target: T4, (His)6-Mouse ASGPR H1; test: BIAcore, antigen coated on a CM5 chip, dAb at 2.5 µM
Description: as §1, §2

B1: DOM26h-61 (other, not shown: small tags and cut ends)
VH: EVQLLESGGGLVQPGGSLRLSCAASGFTFSTYPMHWARQAPGKGLEWVSSISPSGDSTYYADSVKGRFTISRDNSKNTLYLQMNSLRAEDTAVYYCAKNALRFDYWGQGTLVTVSS
notes: human VH domain antibody (dAb); also called VH dAb DOM26h-61
binding result ((His)6-Human ASGPR H1 [1]): binds
binding result [2]: no binding (tested: 2.5 µM)

B2: DOM26h-220-1 (other, not shown: small tags and cut ends)
VH: EVQLLESGGGLVQPGGSLRLSCAASGFTFEDYGMGWVRQAPGKGLEWVSAIGRNGSQTYYADSVKGRFTISRDNSKNTLYLQMNSLRAEDTAVYYCAKLRRGRGLNTFTLDYWGQGTLVTVSS
binding result [3]: no binding
binding result ((His)6-Mouse ASGPR H1 [4]): binds
binding result [5]: binds

B4: DOM26m-54 (other, not shown: small tags and cut ends)
VL: DIQMTQSPSSLSASVGDRVTITCRASLNIDTDLVWYQQKPGKAPKLLIAGWSGLQSGVPSRFSGSGSGTDFTLTISSLQPEDFATYYCGQFAREPFTFGQGTKVEIKR
notes: human Vκ domain antibody (dAb) selected on mouse ASGPR H1
binding result ((His)6-Mouse ASGPR H1 [7]): binds

B7: DOM26h-161-84 (other, not shown: small tags and cut ends)
VL: DIQMTQSPSSLSASVGDRVTITCRASQAIGRWLLWYQQKPGKAPKLLIGPGSRLRSGVPSRFSGSGSGTDFTLTISSLQPEDFVTYYCQQAYAWPPTFGQGTKVEIKR
counts in the liver (percentage of injected dose) 3 hours after injection of DOTA-NHS conjugated, 111In labelled dAb in balb/c mice, against Vκ dummy [6]: 46 fold
binding result [3]: no binding
binding result [5]: binds

B8: DOM26m-58 (other, not shown: small tags and cut ends)
VL: DIQMTQSPSSLSASVGDRVTITCRASQPIRNALTWYQQKPGKAPKLLIYRTSHLQSGVPSRFSGSGSGTDFTLTISSLQPEDFATYYCQQTWTMPLTFGQGTKVEIKR
notes: as for B4
binding result ((His)6-Mouse ASGPR H1 [7]): binds

B9: DOM26h-196-61 (other, not shown: small tags and cut ends)
VH: EVQLLESGGGLVQPGGSLRLSCAASGFTFEKYAMAWVRQAPGKGLEWVSRISARGVTTYYADSVKGRFTISRDNSKNTLYLQMNSLRAEDTAVYYCAKHKRHEHTRFDSWGQGTLVTVSS
counts in the liver (percentage of injected dose) 3 hours after injection of DOTA-NHS conjugated, 111In labelled dAb in balb/c mice, against VH dummy 2 [6]: ~35 fold
binding result [3]: no binding (tested: 60 nM)
binding result [8]: binds
binding result ((His)6-Human ASGPR H1 [9]): binds

B10: DOM26h-196 (other, not shown: small tags and cut ends)
VH: EVQLLESGGGLVQPGGSLRLSCAASGFTFEKYAMAWVRQAPGKGLEWVSRISMAGMTTYYADSVKGRFTISRDNSKNTLYLQMNSLRAEDTAVYYCAKHKKSAHTRFDSWGQGTLVTVSS
notes: human VH domain antibody (dAb)
binding result ((His)6-Human ASGPR H1 [9]): binds

Next, values leading:

counts in the liver (percent injected dose) 3 hours after intravenous injection of 111In labelled dAb in balb/c mice, against VH dummy 2 [6]: 4.9 fold
counts in the liver (percent injected dose) 3 hours after intravenous injection of 111In labelled dAb in balb/c mice, against Vκ dummy [6]: 12.4 fold
B3: DOM26m-33 carrying the point mutation S116C, DOTA-Maleimide conjugated and 111In labelled (other)
VH: EVQLLESGGGLVQPGGSLRLSCAASGFTFAKYDMIWVRQAPGKGLEWVSGINHSGSRTYYADSVKGRFTISRDNSKNMLYLQMNSLRAEDTAVYYCAKSGSSFDYWGQGTLVTVSC
modifications: DOTA-Maleimide on the C-terminal cysteine (S116C), labelled with 111In

binding result ((His)6-Mouse ASGPR H1 [7]): binds
B5: DOM26m-50 (other, not shown: small tags and cut ends)
VL: DIQMTQSPSSLSASVGDRVTITCRASISIYEHLNWYQQKPGKAPTLLIWDSSGLQSGVPSRFSGSGSGTDFTLTISSLQPEDFATYYCVQHHSHPPTFGQGTKVEIKR
notes: as for B4

binding result ((His)6-Mouse ASGPR H1 [7]): binds
B6: DOM26m-29 (other, not shown: small tags and cut ends)
VH: EVQLLESGGGLVQPGGSLRLSCAASGFTFEDSGMIWARQAPGKGLEWVSGIASEGSTTYYADSVKGRFTISRDNSKNTLYLQMNSLRAEDTAVYYCAKSGLSFDYWGQGTLVTVSS
notes: human VH domain antibody (dAb) selected on mouse ASGPR H1

binding result [3]: no binding
binding result ((His)6-Mouse ASGPR H1 [4]): binds
binding result [5]: binds
B11: DOM26h-210-2 (other, not shown: small tags and cut ends)
VH: ELQLLEFGGGLVQPGGSLRLSCTTSGFTFSRYTMGWVRQAPGKGLEWVSAIGPPGSNTYYADSVKGRFTISRDNSKNTLYLQMNSLRAEDTAVYYCAKWVMLRGRFDYWGQGTLVTVSS

binding result ((His)6-Mouse ASGPR H1 [10]): binds
binding result [2]: no binding (tested: 2.5 µM)
B12: DOM26m-20 (other, not shown: small tags and cut ends)
VL: DIQMTQSPSSLSASVGDRVTITCRASKYIGSDLYWYQQKPGKAPKLLIGGGSRLQSGVSSRFSGSGSGTDFTLTISSLQPEDFATYYCGQKWARPLTFGQGTKVEIKR
notes: human Vκ domain antibody (dAb) selected on mouse ASGPR H1; also called Vκ dAb DOM26m-20

binding result ((His)6-Mouse ASGPR H1 [7]): binds
B13: DOM26m-7 (other, not shown: small tags and cut ends)
VH: EVQLLESGGGLVQPGGSLRLSCAASGFTFDDYEMGWVRQAPGKGLEWVSLISAQGRVTYYADSVKGRFTISRDNSKNTLYLQMNSLRAEDTAVYYCAKNSPSYLLNFDYWGQGTLVTVSS
notes: as for B6
